Article PMC4250520, “Calcium-induced conformational changes of the regulatory domain of human mitochondrial aspartate/glutamate carriers” (Nature Communications, 2014)

Legend:
[1] = target: the molecule itself; test: SEC-MALLS; Superdex 200 10/300 GL; 20 mM Hepes pH 7.5, 150 mM NaCl, 5 mM CaCl2; two-detector method
[2] = target: T1, N-terminal domain of citrin (human, UniProt Q9UJS0 2-319); test: SEC; fusion cleaved with MBP-TEV overnight, then Superose 12 10/30 HR; 20 mM Hepes pH 7.5, 150 mM NaCl, 10 mM EGTA (sample E, supplemented with 10 mM EGTA and 10 mM EDTA); peak fractions on Tris-tricine gels; details: both partners purified
T1 construct: human citrin N-terminal domain, residues 2-319; In the crystal structure it is joined to the C-terminal domain on one chain; The N-terminal domain of citrin could not be expressed on its own; also called EF-hands 1-8; source: Lactococcus lactis NZ9000, as part of the purified fusion; set free by cleavage with MBP-TEV
T1 sequence (looked up): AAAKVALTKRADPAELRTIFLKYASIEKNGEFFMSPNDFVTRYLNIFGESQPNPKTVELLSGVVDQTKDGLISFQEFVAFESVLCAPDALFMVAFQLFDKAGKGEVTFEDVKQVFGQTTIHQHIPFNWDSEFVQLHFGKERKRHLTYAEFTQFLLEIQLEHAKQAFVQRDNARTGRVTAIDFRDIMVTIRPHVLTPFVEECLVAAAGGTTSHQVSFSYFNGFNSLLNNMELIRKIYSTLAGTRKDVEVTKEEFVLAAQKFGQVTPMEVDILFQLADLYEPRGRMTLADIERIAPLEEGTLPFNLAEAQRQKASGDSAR

[3] = target: the molecule itself; test: SEC-MALLS; Superose 6 10/300 GL; 20 mM Hepes pH 8.0, 150 mM NaCl, 0.002% (w/v) LMNG, 0.004 mg/ml TOCL; protein-conjugate (three-detector) method

B1: N- and C-terminal domain fusion of citrin (domain or fragment, human)
chain: AAAKVALTKRADPAELRTIFLKYASIEKNGEFFMSPNDFVTRYLNIFGESQPNPKTVELLSGVVDQTKDGLISFQEFVAFESVLCAPDALFMVAFQLFDKAGKGEVTFEDVKQVFGQTTIHQHIPFNWDSEFVQLHFGKERKRHLTYAEFTQFLLEIQLEHAKQAFVQRDNARTGRVTAIDFRDIMVTIRPHVLTPFVEECLVAAAGGTTSHQVSFSYFNGFNSLLNNMELIRKIYSTLAGTRKDVEVTKEEFVLAAQKFGQVTPMEVDILFQLADLYEPRGRMTLADIERIAPLEEGTLPFNLAEAQRQKASGDSARENLYFQGGVKPMGSEPVPKSRINLPAPNPDHVGGYKLAVATFAGIENKFGLYLPLFKPSVSTSKAIGGGP
notes: human citrin N-terminal domain, residues 2-319; TEV protease cleavage site that links the two domains in place of the carrier domain; human citrin C-terminal domain, residues 613-675; A Factor-Xa cleavage site follows the octa-histidine tag; no tag removal step is described in the purification of this fusion; also called citrin N- and C-terminal fusion protein; regulatory domain of citrin; …
- stoichiometry N [1]: 2

B2: N-terminal domain of aralar (domain or fragment, human, UniProt O75746 2-311, looked up)
chain: AVKVQTTKRGDPHELRNIFLQYASTEVDGERYMTPEDFVQRYLGLYNDPNSNPKIVQLLAGVADQTKDGLISYQEFLAFESVLCAPDSMFIVAFQLFDKSGNGEVTFENVKEIFGQTIIHHHIPFNWDCEFIRLHFGHNRKKHLNYTEFTQFLQELQLEHARQAFALKDKSKSGMISGLDFSDIMVTIRSHMLTPFVEENLVSAAGGSISHQVSFSYFNAFNSLLNNMELVRKIYSTLAGTRKDVEVTKEEFAQSAIRYGQVTPLEIDILYQLADLYNASGRLTLADIERIAPLAEGALPYNLAELQRQQ
notes: human aralar N-terminal domain, residues 2-311; Tag removed with Factor Xa; also called aralar N-terminal domain; regulatory domain of aralar; source: Lactococcus lactis NZ9000, purified (Nickel Sepharose, Factor Xa, SEC); not shown: His8, N-terminal, cleaved
- stoichiometry N [1]: 2

B3: N- and C-terminal domain fusion of aralar (domain or fragment, human)
chain: AVKVQTTKRGDPHELRNIFLQYASTEVDGERYMTPEDFVQRYLGLYNDPNSNPKIVQLLAGVADQTKDGLISYQEFLAFESVLCAPDSMFIVAFQLFDKSGNGEVTFENVKEIFGQTIIHHHIPFNWDCEFIRLHFGHNRKKHLNYTEFTQFLQELQLEHARQAFALKDKSKSGMISGLDFSDIMVTIRSHMLTPFVEENLVSAAGGSISHQVSFSYFNAFNSLLNNMELVRKIYSTLAGTRKDVEVTKEEFAQSAIRYGQVTPLEIDILYQLADLYNASGRLTLADIERIAPLAEGALPYNLAELQRQQSPGLGRENLYFQGGLKPAGSEPTPKSRIADLPPANPDHIGGYRLATATFAGIENKFGLYLPKFKSPSVAVVQPKAAVAATQ
notes: human aralar N-terminal domain, residues 2-317; TEV protease cleavage site that links the two domains in place of the carrier domain; human aralar C-terminal domain, residues 611-678; also called aralar fusion; source: gene codon-optimized for expression in L. lactis; expressed, purified
- stoichiometry N [1]: 2

B4: C-terminal domain of citrin (domain or fragment, human, UniProt Q9UJS0 613-675, looked up)
chain: GVKPMGSEPVPKSRINLPAPNPDHVGGYKLAVATFAGIENKFGLYLPLFKPSVSTSKAIGGGP
notes: human citrin C-terminal domain, residues 613-675; residues 632-658 are seen in the structure; In the crystal structure it is joined to the N-terminal domain on one chain; also called C-terminal helix; source: Lactococcus lactis NZ9000, as part of the purified fusion; set free by cleavage with MBP-TEV
- binding result [2]: binds

B5: citrin (mitochondrial aspartate/glutamate carrier isoform 2), full-length (natural protein, human, UniProt Q9UJS0 1-675, looked up)
chain: MAAAKVALTKRADPAELRTIFLKYASIEKNGEFFMSPNDFVTRYLNIFGESQPNPKTVELLSGVVDQTKDGLISFQEFVAFESVLCAPDALFMVAFQLFDKAGKGEVTFEDVKQVFGQTTIHQHIPFNWDSEFVQLHFGKERKRHLTYAEFTQFLLEIQLEHAKQAFVQRDNARTGRVTAIDFRDIMVTIRPHVLTPFVEECLVAAAGGTTSHQVSFSYFNGFNSLLNNMELIRKIYSTLAGTRKDVEVTKEEFVLAAQKFGQVTPMEVDILFQLADLYEPRGRMTLADIERIAPLEEGTLPFNLAEAQRQKASGDSARPVLLQVAESAYRFGLGSVAGAVGATAVYPIDLVKTRMQNQRSTGSFVGELMYKNSFDCFKKVLRYEGFFGLYRGLLPQLLGVAPEKAIKLTVNDFVRDKFMHKDGSVPLAAEILAGGCAGGSQVIFTNPLEIVKIRLQVAGEITTGPRVSALSVVRDLGFFGIYKGAKACFLRDIPFSAIYFPCYAHVKASFANEDGQVSPGSLLLAGAIAGMPAASLVTPADVIKTRLQVAARAGQTTYSGVIDCFRKILREEGPKALWKGAGARVFRSSPQFGVTLLTYELLQRWFYIDFGGVKPMGSEPVPKSRINLPAPNPDHVGGYKLAVATFAGIENKFGLYLPLFKPSVSTSKAIGGGP
notes: also called SLC25A13; AGC2; source: purified in lauryl maltose neopentyl glycol
- stoichiometry N [3]: 2
